This series can be described thus: label from the status in PepcDB records.

“MEKTVIYLLEDGYVDFVVEKIRTKMEKLLEEKDKIFVVLAGGRTPLPVYEKLAEQKFPWNRIHFFLSDERYVPLDSDQSNFRNINEVLFSRAKIPSGNVHYVDTSLPIEKACEKYEREIRSATDQFDLAILGMGPDGHVASIFDLETGNKDNLVTFTDPSGDPKVPRVTLTFRALNTSLYVLFLIRGKEKINRLTEILKDTPLPAYFVRGKEKTVWFVGK”: the protein production entry is on record as “not failed”.
Take “MEKVAFIGLGAMGYPMAGHLARRFPTLVWNRTFEKALRHQEEFGSEAVPLERVAEARVIFTCLPTTREVYEVAEALYPYLREGTYWVDATSGEPEASRRLAERLREKGVTYLDAPVSGGTSGAEAGTLTVMLGGPEEAVERVRPFLAYAKKVVHVGPVGAGHAVKAINNALLAVNLWAAGEGLLALVKQGVSAEKALEVINASSGRSNATENLIPQRVLTRAFPKTFALGLLVKDLGIAMGVLDGEKAPSPLLRLAREVYEMAKRELGPDADHVEALRLLERWGGVEIR”: the protein production entry is recorded as “not failed”.
In the case of “MEKYNSLSDFLKEFYIPTYVLSAETEEEEEEESRPTPASPVLVFINSKSGGQLGGELILTYRSLLNHNQVFDLDQETPDKVLRRIYLNLERLKDDDFARQIREKLKIIVAGGDGTAGWLLGVVCDLKLSHPPPIATVPLGTGNNLPFAFGWGKKNPGTDRTAVESFLEQVLKAKVMKIDNWHILMRMKTPKEGGSCDPVAPLELPHSLHAFHRVSPTDELNKEGCHTFRGGFWNYFSLGMDAQISYAFHSERKLHPEKFKNQLVNQSTYVKLGCTQGWFCASLFHPASRNIAQLAKVKIATRNGQWQDLHIPHSIRSIVCLNLPSFSGGLNPWGTPNPRKQRDRGLTPPFVDDGLIEVVGFRNAWHGLVLLAPNGHGTRLAQANRIRFEFHKGATDHTFMRMDGEPWKQPLPLDDETVMVEISHLGQVNMLATHDCRSRSVFDPSTPRHQDGAEDYDDNEDDSVAEGEEFRKFGAADTFKIPDEGEHSNKKGRASRRRNSNVHGWSHVL” it was “not failed”.
“MEKYPEIQQMRSKMREGDDTNEFKIRPLKGLSHPSGNLQMQRFQEDRRERIHSIRKRENQDGRLDLIGVVGEITVVIDDVVYEEEKLRKVVFTMKG”: the protein production result was “not failed”.
“MEKYQNLLVVIDPNQDDQPALRRAVYIVQRNGGRIKAFLPVYDLSYDMTTLLSPDERNAMRKGVINQKTAWIKQQARYYLEAGIQIDIKVIWHNRPYEAIIEEVITDKHDLLIKMAHQHDKLGSLIFTPLDWQLLRKCPAPVWMVKDKEWPEYGTIVVAANLSNEESYHDALNLKLIELTNDLSHRIQKDPDVHLLSAYPVAPINIAIELPDFDPNLYNNALRGQHLIAMKELRQKFSIPEEKTHVKEGLPEQVIPQVCEELNAGIVVLGILGRTGLSAAFLGNTAEQLIDHIKCDLLAIKPDGFTCPITVDSDNE”: the protein production entry was “not failed”.
In the case of “MELAAILFSMFFAMNIGASGAAASMGIAYGSEAVKKKFHALLICAAGVLSGAVIGGGNVVKTISSGIIPERVISLEIVCIIIGSAALSLFIANVLGIPLSTSEVTVGSVVGVGVAYQVLYVKSLLVIVSFWVIVPIVAFAFTFAMAKIMKKTIKRPASGKKAKVLAVILLITGFFEAFSAGMNNVANAVGPLVAAHVLTVGEGTLYGGLFVALGALLLGRRVLETNGKKITRFSKGEGIILSGTGAGLVITSSIFGLPVPLAQVTSSSIIGMGMAKNGGNVFHKQVVKTMLKVWVVSPFLSLSLSYMLVSLLLKGDYYALIVVTSVLLASVGTISLMRAVKKEHSSVHEQGGGI” it was “failed”; in that of “MELANKMLHALEHEDMALAKKYFDEVVQAGTDEEQYYLAEELFALGFLDETEDLYELLLAKYKDEGELLVRAAEVALEKDDMDAAQDYLEKVNKEDEAYIESLLVLADLYQMQGLFEVSEQKLLEAKQMAPNEPIIDFALGEYYLSQARFASAVQSYQTAVEAGLTIISNGAVSVYERIAEAFAASGAFEEALPYYERALEDKESVDTLFGMGLTAYQAKDYTKAIHALEHLREHDPSYTTLYSYLAKSYEENGEPEKAIAVLRDGLTQDEFNKEMFLEAGKLAVTLRLPEEAEEFYRQAIVLDEEFSEAIMQLNKLLLAKENYEGVIELVEGLGEEVISEPQIFWDVSVAYQETEQYNKAKANYELAYPHFTNNPTFLKEYGLFLREEGEHAKSQEVLRSYLELEPEDTEILSLFD”, “failed”.
In the case of “MELAVHDATEDGAGYATAASSWVVVEPEFVVDVTDIRSFVQCPRLYYLNKLSGLPLKYPVTKGTIVHEVFGDLLRGRDLEASVAQRVDEAGLELGLLGRSRAEVEADVRDNASAIEGWLQQGRLTDEDEWRSEYTLVSERFGIKGRCDAIRRGMPVELKTGKNTNREPRFHDKVQAACYALMLDEHGVPADTGTLLYTKNAAVDRSEASGDLSPAKEFSIGRGFLEFVVRERNHLAALEASDGPPTGYEADAKCDYCFEQDTCMVVSGRLDQESKAGRIGDPVPAEERAYFDELYDAIEAERGAIHDEYRKLWEQSPDERAADDRAVVGLSPAEQTELPDGRWRLTATRPGSAASKIREGDRVLASDGDPVAGRAEMARVERLDADRVEVTTDEPVSLCRLDVYPSELSVDRMLTALHDAVLKSDQRRTDLLFDRASPRFEGGDHDLIPNNDAQNAAVNRALNAEDFALVHGPPGTGKTYTIATLVQAFVARGDRVLVSAFTNRAVDNALDALRQQGHEDIVRVGTETGVRADMQDLRLDRSGDPGERAAALRSAPVVAATTATCGSRILRELEFDVVLVDEASQLTEPDTLAAINRGARFVLVGDHEQLPPVVRSGGRLSKSLFERLHETYPEASVMLDQQYRMSQRIQAFSSREFYDGQLRPASSEVAGQRLTDVGVDPGGAVHGGVTFYDVPGTDDAHVDPAEADRVADVVTAYVDAGLDPGEIGVIAPFRAQVAEIGRRTPAGVAVDTVDRFQGSSKEVIVVSFVARGTLEGPIFEDHRRVNVALSRAKKSLVLVGDERALRSEPLYDRMIDWADMELEHHHHHH” it was “failed”.
For the sequence “MELFTLGACRQVGKSCFVLKTSEGLVMLDCGLHPSYQDDRRYPNFSLAFSYGPLKAVFITHCHADHVGALPILTERWGYDGPIYMSEPTRKLSYYILEECVGSWGGDDEWTDSSRSEWSYTQREVESCLTKVTIMEPGQSISVGENVQVHSWMAGHVLGAYMFSIVVDNHRILYTGDFTSCPTFHLPPARVDDIPYPPDVILSEATYATSFKDGRLNNQVEFIQNVLDCLLDGGKVLVPVFAIGRAQELLLLLGK”, the protein production entry is on record as “not failed”.
On to “MELKTAADSNFSESEESPETKGIRILEGDPKKAIIKLAVPMIVAMSVQTLYQLIDTFWVSGLGADALAAMGFVFPFYFISMALSNGLGIGGGAAISRKIGARDKAGADNVAVHTIIIMMLLVLIFTIPFYVFAPHIFSLVGAGKTTDLAVAYARVIFLGSIVIFFTNVANSILRSEGDSKRAMYAMVLGAALNIVIDPIFIYTFKMGIAGAAWATLLSLAVSSAMMLNWLFFKKDTFVSFDFKDFSFEKSIINDIFRIAVPASAQQLSMSLSMLVLNLIIVNVSSTDGVAVYSTGWRVATIAIAPLVGIATAVVSVSGAAFGAKDFEKAKTAHTYAVKVGLLIEGGVAAFTFIFAPQIAAVFTQTEEAAHIAPDLIQFLRIICIFYPTVSLGMLSTSLFQGAGKGFSALTANLLRTIVFTPLFAAFFAFNLNMGQVGAWWGIVAGNAIGAGVVYVWVKLYLSTILKTGPLHKPFEQGI”, for which the protein production result was “failed”.
Turning to “MELLCHEVDPVRRAVRDRNLLRDDRVLQNLLTIEERYLPQCSYFKCVQKDIQPYMRRMVATWMLEVCEEQKCEEEVFPLAMNYLDRFLAGVPTPKSHLQLLGAVCMFLASKLKETSPLTAEKLCIYTDNSIKPQELLEWELVVLGKLKWNLAAVTPHDFIEHILRKLPQQREKLSLIRKHAQTFIALCATDFKFAMYPPSMIATGSVGAAICGLQQDEEVSSLTCDALTELLAKITNTDVDCLKACQEQIEAVLLNSLQQYRQDQRDGSKSEDELDQASTPTDVRDIDL”, the protein production entry is “not failed”.
As for “MELLIRTEQLLLQNEKNWELYLSNREEEKPFDFYKDMKPFVDEAKRCADDFLELAIPWVNTERPPYLGELQLRQACDNVQMTAVSAFNGRSFYKHFLDHYQSTKYTLTRVRDFLKRKEESM”, the entry is “not failed”; as for “MELLKEYNPYLEYRDGELFIEGVSLKELAQTFGTPLYVYSSNFIKERFEAYRKAFPDALICYAVKANFNPHLVKLLGELGAGADIVSGGELYLAKKAGIPPERIVYAGVGKTEKELTDAVDSEILMFNVESRQELDVLNEIAGKLGKKARIAIRVNPDVDPKTHPYIATGMQKSKFGVDIREAQKEYEYASKLENLEIVGIHCHIGSQILDISPYREAVEKVVSLYESLTQKGFDIKYLDIGGGLGIKYKPEDKEPAPQDLADLLKDLLENVKAKIILEPGRSIMGNAGILITQVQFLKDKGSKHFIIVDAGMNDLIRPSIYNAYHHIIPVETKERKKVVADIVGPICETGDFLALDREIEEVQRGEYLAVLSAGAYGFAMSSHYNMRPRAAEVLVENGSVKLIRKRENYDYIVEPSLDI”, “not failed”; as for “MELNQPPLPTEIDGDAYHKPSFNDLGLKESVLKSVYEAGFTSPSPIQEKAIPAVLQGRDVIAQAQTGTGKTAAFALPIINNLKNNHTIEALVITPTRELAMQISDEIFKLGKHTRTKTVCVYGGQSVKKQCEFIKKNPQVMIATPGRLLDHLKNERIHKFVPKVVVLDESDEMLDMGFLDDIEEIFDYLPSEAQILLFSATMPEPIKRLADKILENPIKIHIAPSNITNTDITQRFYVINEHERAEAIMRLLDTQAPKKSIVFTRTKKEADELHQFLASKNYKSTALHGDMDQRDRRSSIMAFKKNDADVLVATDVASRGLDISGVSHVFNYHLPLNTESYIHRIGRTGRAGKKGMAITLVTPLEYKELLRMQKEIDSEIELFEIPTINENQIIKTLHDAKVSEGIISLYEQLTEIFEPSQLVLKLLSLQFETSKIGLNQQEIDAIQNPKEKTPKPSNKKTPQHERARSFKKGQHRDRHPKTNHYSKKPKRR”, “failed”.
For the sequence “MELRIMTGKLILLGFIIYQCVFSESDNLPWLVFSLLVYVCINLGIAILPKGKTKKLFIIISVIISIVSYAEVHPLFILFLPFTLCEGAADFGLPKWAVLAASIVPVLFINESISAVYALTAAFQFLLYWAASHDAARIEKLEHHIDQTRRDLQKLTNMLRENKEFIRQSEYTYKLEERNRLSQEIHDKIGHSMTGALIQLEAAKRVLDIDKEKASELLQNAINISKDGIENIRLTLKSVKPPSEQMGIHRLRLFIDECSAQYHMNISFLHKGDLDVISQIQWKIIFENITEALTNSVKYAEATHVSICIHVLNTLIKAEVKDNGKGRQKIKKGMGIIGMEERAASVNGKVIVDGSNGFSVTTLLPKHE”, the protein production entry was “failed”.
As for “MELRTPGTKWSPQGIGSLRRVVWDYSTPEISLFSEEGLKGEQVKLTEALKNSQGLEKPLQVASATVSAGLWLLYPKPLFEDTPYILEPGEYPTSEAWGTSDPSVGSLKPMRLGCPSVEKPGEPRAVVYEAPGFQGRSWEVSRDIYNLQQPEDSQSPHLASVGSLRVLGGCWVGYEKEGFRGHQYLLEEGEYPDWSHWGGYDELLTSLRVIRTDFGDPAVVLFEAMDFEGHGVEVSKALPDVELVQHGPSTQAIHVLSGVWVAYQEVGFSGEQYVLEKGVYRNCEDWGAGNSTLASLQPVLQVGEHDLHFVSKIQLFSRPDFLGDHFSFEDDQAALPASFRPQSCRVHGGSWILFDETNFEGDQHILSEGEFPTLTAMGCLASTVLGSLQKVSLHFSEPSIFLYGLECFEGKEIELSREVRSLQAEGFNNHVLSVRIKGGIWVLCEHSDFRGRQWLVGSCEITNWLTYSGTQRVGSLYPIKQRRVYFRLWNAALGGFLAVPDHVEDMKAGRVVVADPQAGGSCIWYYEDGLLKNQMAPTMSLQVIGPPSPGSKVVLWAESRLPRQTWSISESGHICSQMFEGQILDVKGGRGYDRDHVVLWEPDEDRASQIWTIHVL”, the entry is “failed”.

The values are drawn from a protein production outcome set (Wang et al. 2014).
